Reference: patent US20250250350A1

Biological target: Alkaline Phosphatase, Germ Cell (ALPG) expressed on K562-ALPG and K562-ALPG/MSLN target cells (UniProt P10696)
Sequence (P10696 20-503): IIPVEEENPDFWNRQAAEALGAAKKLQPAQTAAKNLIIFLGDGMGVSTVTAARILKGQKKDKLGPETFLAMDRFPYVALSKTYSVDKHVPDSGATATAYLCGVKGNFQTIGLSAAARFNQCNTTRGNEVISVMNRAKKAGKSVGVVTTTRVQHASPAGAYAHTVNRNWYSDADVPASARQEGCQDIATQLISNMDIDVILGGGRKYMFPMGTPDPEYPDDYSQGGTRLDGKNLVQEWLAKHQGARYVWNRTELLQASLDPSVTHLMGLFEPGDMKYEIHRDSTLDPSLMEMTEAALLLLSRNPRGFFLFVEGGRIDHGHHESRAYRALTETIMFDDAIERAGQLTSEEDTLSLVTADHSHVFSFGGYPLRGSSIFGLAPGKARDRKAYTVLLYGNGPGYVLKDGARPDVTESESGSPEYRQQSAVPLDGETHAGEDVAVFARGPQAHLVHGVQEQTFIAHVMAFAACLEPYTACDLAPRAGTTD

B1: Myc-tag ALPG/P priming receptor: anti-ALPG/P scFv-CD8α hinge-Notch1 TMD-Notch1 STS-HNF1aDBD-p65 activation domain (protein, not shown: small tags and cut ends)
chain: DIQMTQSPSSLSASVGDRVTITCRASENIYSYVAWYQQKPGKAPKLLIYNAKSLASGVPSRFSGSGSGTDFTLTISSLQPEDFATYYCQHHYVSPWTFGGGTKLEIKGGGGSGGGGSGGGGSQVQLQESGPGLVKPSETLSLTCTVSGFSLTSYGVSWIRQPAGKGLEWIGVIWEDGSTNYHSALISRVTMSVDTSKNQFSLKLSSVTAADTAVYYCARPHYGSSYVGAMEYWGAGTTVTVSSATTTPAPRPPTPAPTIASQPLSLRPEACFMYVAAAAFVLLFFVGCGVLLSRKRRRQHGQLWFPEGFKVSEASKKKRREPLGEDSVGLKPLKNAMVSKLSQLQTELLAALLESGLSKEALLQALGEPGPYLLAGEGPLDKGESCGGGRGELAELPNGLGETRGSEDETDDDGEDFTPPILKELENLSPEEAAHQKAVVETLLQEDPWRVAKMVKSYLQQHNIPQREVVDTTGLNQSHLSQHLNKGTPMKTQKRAALYTWYVRKQREVAQQFTHAGQGGLIEEPTGDELPTKKGRRNRFKWGPASQQILFQAYERQKNPSKEERETLVEECNRAECIQRGVSPSQAQGLGSNLVTEVRVYNWFANRRKEEAFRHKLAMTCRDEFPTMVFPSGQISQASALAPAPPQVLPQAPAPAPAPAMVSALAQAPAPVPVLAPGPPQAVAPPAPKPTQAGEGTLSEALLQLQFDDEDLGALLGNSTDPAVFTDLASVDNSEFQQLLNQGIPVAPHTTEPMLMEYPEAITRLVTGAQRPPDPAPAPLGAPGLPNGLLSGDEDFSSIADMDFSALLSQISS
- % of LG1 T cells CAR+ PrimeR+ (upper right quadrant) after 72 h with K562 ALPG high, 1:1: 0.043%
- % of LG1 T cells CAR+ PrimeR+ (upper right quadrant) after 72 h with K562 ALPG low, 1:1: 0.25%
- % of LG1 T cells CAR+ PrimeR+ (upper right quadrant), T cells alone, no ALPG cells (baseline): 1.11%
- % of LG1 T cells CAR+ PrimeR- (upper left quadrant) after 72 h with K562 ALPG high, 1:1: 5.29%
- % of LG1 T cells CAR+ PrimeR- (upper left quadrant) after 72 h with K562 ALPG low, 1:1: 5.88%
- % of LG1 T cells CAR+ PrimeR- (upper left quadrant; FLAG APC vs myc PE), T cells alone, no ALPG cells (baseline): 0.12%
- % of LG1 T cells PrimeR+ CAR- (lower right quadrant) after 72 h with K562 ALPG high, 1:1: 0.043%
- % of LG1 T cells PrimeR+ CAR- (lower right quadrant) after 72 h with K562 ALPG low, 1:1: 0.44%
- % of LG1 T cells PrimeR+ CAR- (lower right quadrant), T cells alone, no ALPG cells (baseline): 12%
